According to article PMC7761469:

Biological target: epidermal growth factor receptor (EGFR) (human (endogenous in LNCaP, DU145 and PC-3)) (UniProt P00533)
Test: flow cytometry on cells

Substance: targeted toxin EGF-PE40
- fold reduction of binding compared to EGF: 28.6 to 76.1 fold
